Source: patent publication US20240117030A1 (Pfizer, published 2024)

Assays:
Experiment in all cases: cell-based or functional assay
human IL-33 mm2 Cys = target: T1, human IL-33 mm2 Cys (human, UniProt O95760 112-270, limits assumed)
T1 sequence (looked up): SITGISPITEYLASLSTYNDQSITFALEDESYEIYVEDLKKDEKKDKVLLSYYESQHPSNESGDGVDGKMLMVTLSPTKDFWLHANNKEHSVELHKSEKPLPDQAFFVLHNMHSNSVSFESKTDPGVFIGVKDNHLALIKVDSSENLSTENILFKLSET

recombinant human IL-4 = target: T2, recombinant human IL-4 (human, UniProt P05112 25-153)
T2 sequence (looked up): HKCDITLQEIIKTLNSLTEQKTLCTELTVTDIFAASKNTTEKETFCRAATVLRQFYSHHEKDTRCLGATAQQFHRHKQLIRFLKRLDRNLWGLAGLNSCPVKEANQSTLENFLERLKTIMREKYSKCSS

recombinant human IL-33 = target: T3, recombinant human IL-33 (human, UniProt O95760 112-270, limits assumed)
T3 sequence (looked up): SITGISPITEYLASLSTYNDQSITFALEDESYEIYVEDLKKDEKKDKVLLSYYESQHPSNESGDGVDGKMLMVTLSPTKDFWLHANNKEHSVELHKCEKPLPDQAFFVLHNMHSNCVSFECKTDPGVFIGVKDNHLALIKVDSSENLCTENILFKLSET

recombinant human IL-13 = recombinant human IL-13 (human, UniProt P35225 35-146)
Sequence of recombinant human IL-13 (P35225 35-146 limits assumed): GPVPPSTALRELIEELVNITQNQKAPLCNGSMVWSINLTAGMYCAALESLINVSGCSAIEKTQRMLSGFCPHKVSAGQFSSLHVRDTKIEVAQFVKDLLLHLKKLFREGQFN

| Binder | IC50 [pM] versus human IL-33 mm2 Cys (HEK-Blue SEAP) (human IL-33 mm2 Cys) [pM] | IL-4 Induced CD23 Expression, potency of cytokine neutralization (recombinant human IL-4) [nM] | IL-33 WT Activation of SEAP Reporter Cells, potency of cytokine neutralization (recombinant human IL-33) [nM] | IL-13 Induced CD23 Expression, potency of cytokine neutralization (recombinant human IL-13) [nM] |
| --- | --- | --- | --- | --- |
| IL33-0217 (antibody, human IgG1, kappa, V domains shown) VH: EVQLVESGGGLVQPGGSLRLSCAASGFTFSSYWMYWVRQAPGKGLEWVAAITPNAGEDYYPESVKGRFTISRDNAKNSLYLQMNSLRAEDTAVYYCARGHYYYTSYSLGYWGQGTLVTVSS VL: DIQMTQSPSSLSASVGDRVTITCRASQNINKHLDWYQQKPGKAPKLLIYFTNNLQTGVPSRFSGSGSGTDFTLTISSLQPEDFATYYCFQYNQGWTFGGGTKVEIKR | 158 | – | – | – |
| IL33-0219 (antibody, human IgG1, kappa, V domains shown) VH: EVQLVESGGGLVQPGGSLRLSCAASGFTFSSYWMYWVRQAPGKGLEWVAAITPNAGEDYYPESVKGRFTISRDNAKNSLYLQMNSLRAEDTAVYYCARGHYYYTSYSLGYWGQGTLVTVSS VL: DIQMTQSPSSLSASVGDRVTITCRASQNIQKHLDWYQQKPGKAPKLLIYFTNNLQTGVPSRFSGSGSGTDFTLTISSLQPEDFATYYCFQYNQGWTFGGGTKVEIKR | 142 | – | – | – |
| IL33-0220 (antibody, human IgG1, kappa, V domains shown) VH: EVQLVESGGGLVQPGGSLRLSCAASGFTFSSYWMYWVRQAPGKGLEWVAAITPNAGEDYYPESVKGRFTISRDNAKNSLYLQMNSLRAEDTAVYYCARGHYYYTSYSLGYWGQGTLVTVSS VL: DIQMTQSPSSLSASVGDRVTITCRASQNIYKHLDWYQQKPGKAPKLLIYFTNNLQTGVPSRFSGSGSGTDFTLTISSLQPEDFATYYCFQYNQGWTFGGGTKVEIKR | 176 | – | – | – |
| IL13433-1279 (other) VH 1: EVQLVESGGGLVQPGGSLRLSCAASGFTFSSYAMSWVRQAPGKGLEWVASISSGDTTYYPDSVKGRFTISRDNAKNSLYLQMNSLRAEDTAVYYCARNEGYYFGLTLWGQGTLVTVSS VL 1: DIQMTQSPSSLSASVGDRVTITCKASESVDHFGWSLVHWYQQKPGKAPKLLIYRASNLESGVPSRFSGSGSGTDFTLTISSLQPEDFATYYCQQSNEDPWTFGGGTKVEIK VH 2: EVTLRESGPALVKPTQTLTLTCTFSGFSLSNFGEGLSWIRQPPGKGLEWLAHIYWDDDKRYNPSLKSRLTISKDTSRNQVVLTMTNMDPVDTATYYCARRETVFYWYFDVWGQGTTVTVSS VL 2: DIQMTQSPSSLSASVGDRVTITCRASQSVDEEGDSYMNWYQQKPGKAPKLLIYAASNLESGVPSRFSGSGSGTDFTLTISSLQPEDFATYYCQQSNKDPPTFGGGTKVEIK VH 3: EVQLVESGGGLVQPGGSLRLSCAASGFTFSSYWMYWVRQAPGKGLEWVAAITPNAGEDYYPESVKGRFTISRDNAKNSLYLQMNSLRAEDTAVYYCARGQYYYTKYSLGYWGQGTLVTVSS VL 3: DIQMTQSPSSLSASVGDRVTITCRASQPIHNHLDWYQQKPGKAPKLLIYFGKNLQEGVPSRFSGSGSGTDFTLTISSLQPEDFATYYCFQYKKGWSFGGGTKVEIK | – | 0.0137 | 0.013 | 0.00913 |
| IL33-0224 (antibody, human IgG1, V domains shown) VH: EVQLVESGGGLVQPGGSLRLSCAASGFTFSSYWMYWVRQAPGKGLEWVAAITPNAGEDYYPESVKGRFTISRDNAKNSLYLQMNSLRAEDTAVYYCARGHYYYTSYSLGYWGQGTLVTVSS VL: DIQMTQSPSSLSASVGDRVTITCRASQPISKHLDWYQQKPGKAPKLLIYFTNNLQTGVPSRFSGSGSGTDFTLTISSLQPEDFATYYCFQYNQGWTFGGGTKVEIK | 115 | – | – | – |
| IL13433-1270 (other) heavy: EVQLVESGGGLVQPGGSLRLSCAASGFTFSSYWMYWVRQAPGKGLEWVAAITPNAGEDYYPESVKGRFTISRDNAKNSLYLQMNSLRAEDTAVYYCARGQYYYTKYSLGYWGQGTLVTVSSASTKGPSVFPKAPSSKSTSGGTAALGCLVKDYFPEPVTVSWNSGALTSGVHTFPAVLQSSGLYSLSSSVTVPSSSLGTQTYICNVNHKPSNTKVDKKVEPKSCDKTHTCPPCPAPEAAGAPSVFLFPPKPKDTLMISRTPEVTCVVVDVSHEDPEVKFNWYVDGVEVHNAKTKPREEQYNSTYRVVSVLTVLHQDWLNGKEYKCKVSNKALPAPIEKTISKAKGQPREPQVCTLPPSREEMTKNQVSLWCLVKGFYPSDIAVEWESNGQPENNYKTTPPVLDSDGSFFLYSKLTVDKSRWQQGNVFSCSVLHEALHSHYTQKSLSLSPGK chain 1: DIQMTQSPSSLSASVGDRVTITCKASESVDHFGWSLVHWYQQKPGKAPKLLIYRASNLESGVPSRFSGSGSGTDFTLTISSLQPEDFATYYCQQSNEDPWTFGGGTKVEIKRTVAAPSVFIFPPSDEQLKSGTASVVCLLNNFYPREAKVQWKVDNALQSGNSQESVTEQDSKDSTYSLSSTLTLSKADYEKHKVYACEVTHQGLSSPVTKSFNRGECGGGGSEVTLRESGPALVKPTQTLTLTCTFSGFSLSNFGEGLSWIRQPPGKGLEWLAHIYWDDDKRYNPSLKSRLTISKDTSRNQVVLTMTNMDPVDTATYYCARRETVFYWYFDVWGQGTTVTVSSASTKGPSVFPEAPSSKSTSGGTAALGCLVKDYFPEPVTVSWNSGALTSGVHTFPAVLQSSGLYSLGSVVTVPSSSLGTQTYICNVNHKPSNTKVDKKVEPKSCDKTHTCPPCPAPEAAGAPSVFLFPPKPKDTLMISRTPEVTCVVVDVSHEDPEVKFNWYVDGVEVHNAKTKPREEQYNSTYRVVSVLTVLHQDWLNGKEYKCKVSNKALPAPIEKTISKAKGQPREPQVYTLPPCREEMTKNQVSLSCAVKGFYPSDIAVEWESNGQPENNYKTTPPVLDSDGSFFLVSKLTVDKSRWQQGNVFSCSVLHEALHSHYTQKSLSLSPGK light 1: DIQMTQSPSSLSASVGDRVTITCRASQPIHNHLDWYQQKPGKAPKLLIYFGKNLQEGVPSRFSGSGSGTDFTLTISSLQPEDFATYYCFQYKKGWSFGGGTKVEIKRTVAAPSVFIFPPSDEQLKSGTASVSCLLNNFYPREAKVQWKVDNALQSGNSQESVTEQDSKDSTYSLDSTLTLSKADYEKHKVYACEVTHQGLSSPVTKSFNRGEC light 2: DIQMTQSPSSLSASVGDRVTITCRASQSVDEEGDSYMNWYQQKPGKAPKLLIYAASNLESGVPSRFSGSGSGTDFTLTISSLQPEDFATYYCQQSNKDPPTFGGGTKVEIKRTVAAPSVFIFPPSDEQLKSGTASVSCLLNNFYPREAKVQWKVDNALQSGNSQESVTEQDSKDSTYSLKSTLTLSKADYEKHKVYACEVTHQGLSSPVTKSFNRGEC chain 2: EVQLVESGGGLVQPGGSLRLSCAASGFTFSSYAMSWVRQAPGKGLEWVASISSGDTTYYPDSVKGRFTISRDNAKNSLYLQMNSLRAEDTAVYYCARNEGYYFGLTLWGQGTLVTVSSASTKGPSVFPLAPSSKSTSGGTAALGCLVKDYFPEPVTVSWNSGALTSGVHTFPAVLQSSGLYSLSSVVTVPSSSLGTQTYICNVNHKPSNTKVDKKVEPKSC | – | 0.0165 | 0.012 | 0.00758 |
| IL13433-1275 (other) heavy: EVQLVESGGGLVQPGGSLRLSCAASGFTFSSYWMYWVRQAPGKGLEWVAAITPNAGEDYYPESVKGRFTISRDNAKNSLYLQMNSLRAEDTAVYYCARGQYYYTKYSLGYWGQGTLVTVSSASTKGPSVFPLAPSSKSTSGGTAALGCLVKDYFPEPVTVSWNSGALTSGVHTFPAVLQSSGLYSLSSVVTVPSSSLGTQTYICNVNHKPSNTKVDKKVEPKSCDKTHTCPPCPAPEAAGAPSVFLFPPKPKDTLMISRTPEVTCVVVDVSHEDPEVKFNWYVDGVEVHNAKTKPREEQYNSTYRVVSVLTVLHQDWLNGKEYKCKVSNKALPAPIEKTISKAKGQPREPQVYTLPPSREEMTKNQVSLWCLVKGFYPSDIAVEWESNGQPENNYKTTPPVLDSDGSFFLYSKLTVDKSRWQQGNVFSCSVLHEALHSHYTQKSLSLSPGK chain 1: DIQMTQSPSSLSASVGDRVTITCKASESVDHFGWSLVHWYQQKPGKAPKLLIYRASNLESGVPSRFSGSGSGTDFTLTISSLQPEDFATYYCQQSNEDPWTFGGGTKVEIKRTVAAPSVFIFPPSDEQLKSGTASVVCLLNNFYPREAKVQWKVDNALQSGNSQESVTEQDSKDSTYSLSSTLTLSKADYEKHKVYACEVTHQGLSSPVTKSFNRGECGGGGSEVTLRESGPALVKPTQTLTLTCTFSGFSLSNFGEGLSWIRQPPGKGLEWLAHIYWDDDKRYNPSLKSRLTISKDTSRNQVVLTMTNMDPVDTATYYCARRETVFYWYFDVWGQGTTVTVSSASTKGPSVFPLAPSSKSTSGGTAALGCLVKDYFPEPVTVSWNSGALTSGVHTFPAVLQSSGLYSLSSVVTVPSSSLGTQTYICNVNHKPSNTKVDKKVEPKSCDKTHTCPPCPAPEAAGAPSVFLFPPKPKDTLMISRTPEVTCVVVDVSHEDPEVKFNWYVDGVEVHNAKTKPREEQYNSTYRVVSVLTVLHQDWLNGKEYKCKVSNKALPAPIEKTISKAKGQPREPQVYTLPPSREEMTKNQVSLSCAVKGFYPSDIAVEWESNGQPENNYKTTPPVLDSDGSFFLVSKLTVDKSRWQQGNVFSCSVLHEALHSHYTQKSLSLSPGK light 1: DIQMTQSPSSLSASVGDRVTITCRASQPIHNHLDWYQQKPGKAPKLLIYFGKNLQEGVPSRFSGSGSGTDFTLTISSLQPEDFATYYCFQYKKGWSFGGGTKVEIKRTVAAPSVFIFPPSDEQLKSGTASVVCLLNNFYPREAKVQWKVDNALQSGNSQESVTEQDSKDSTYSLSSTLTLSKADYEKHKVYACEVTHQGLSSPVTKSFNRGEC light 2: DIQMTQSPSSLSASVGDRVTITCRASQSVDEEGDSYMNWYQQKPGKAPKLLIYAASNLESGVPSRFSGSGSGTDFTLTISSLQPEDFATYYCQQSNKDPPTFGGGTKVEIKRTVAAPSVFIFPPSDEQLKSGTASVVCLLNNFYPREAKVQWKVDNALQSGNSQESVTEQDSKDSTYSLSSTLTLSKADYEKHKVYACEVTHQGLSSPVTKSFNRGEC chain 2: EVQLVESGGGLVQPGGSLRLSCAASGFTFSSYAMSWVRQAPGKGLEWVASISSGDTTYYPDSVKGRFTISRDNAKNSLYLQMNSLRAEDTAVYYCARNEGYYFGLTLWGQGTLVTVSSASTKGPSVFPLAPSSKSTSGGTAALGCLVKDYFPEPVTVSWNSGALTSGVHTFPAVLQSSGLYSLSSVVTVPSSSLGTQTYICNVNHKPSNTKVDKKVEPKSC | – | 0.0149 | 0.013 | 0.00888 |
